This passage reports overlay signal as percent of the endogenous IC band, percent increase in binding against dephospho-ICs and fold reduction in binding against the wild type results from publication PMC2592828.

Common to all, as to assay: far-Western, overlay or dot blot
In test [1] the target is zw10 (endogenous, ~90-kD band) (UniProt O43264).
Test [2] addresses p150^Glued subunit of dynactin (endogenous, band in total extracts) (UniProt Q14203).
Test [3] concerns the target recombinant IC-2C T89D mutant.
Test [4] has as its target recombinant IC-2C T89E mutant.

Sequence of UniProt O43264 (O43264 whole entry): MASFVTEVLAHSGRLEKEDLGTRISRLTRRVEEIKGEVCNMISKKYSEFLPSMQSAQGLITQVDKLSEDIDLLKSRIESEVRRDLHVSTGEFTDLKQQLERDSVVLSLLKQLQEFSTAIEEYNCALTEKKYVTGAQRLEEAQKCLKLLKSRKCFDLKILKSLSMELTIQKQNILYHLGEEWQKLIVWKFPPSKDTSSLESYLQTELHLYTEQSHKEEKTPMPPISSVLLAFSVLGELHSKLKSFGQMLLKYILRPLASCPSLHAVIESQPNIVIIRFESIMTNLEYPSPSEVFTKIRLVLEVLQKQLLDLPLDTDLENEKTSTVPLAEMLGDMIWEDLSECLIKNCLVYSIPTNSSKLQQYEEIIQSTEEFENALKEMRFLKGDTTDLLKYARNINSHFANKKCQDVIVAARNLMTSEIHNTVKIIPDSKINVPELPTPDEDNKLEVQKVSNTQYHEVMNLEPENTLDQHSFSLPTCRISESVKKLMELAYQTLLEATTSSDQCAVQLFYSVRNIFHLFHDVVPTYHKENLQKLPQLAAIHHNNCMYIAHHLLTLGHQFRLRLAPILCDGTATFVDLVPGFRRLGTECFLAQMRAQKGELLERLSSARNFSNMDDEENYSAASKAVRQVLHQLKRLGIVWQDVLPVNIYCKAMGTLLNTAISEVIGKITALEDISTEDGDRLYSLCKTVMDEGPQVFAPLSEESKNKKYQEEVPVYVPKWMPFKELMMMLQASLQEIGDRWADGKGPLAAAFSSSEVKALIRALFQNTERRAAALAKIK
Sequence of UniProt Q14203 (Q14203 whole entry): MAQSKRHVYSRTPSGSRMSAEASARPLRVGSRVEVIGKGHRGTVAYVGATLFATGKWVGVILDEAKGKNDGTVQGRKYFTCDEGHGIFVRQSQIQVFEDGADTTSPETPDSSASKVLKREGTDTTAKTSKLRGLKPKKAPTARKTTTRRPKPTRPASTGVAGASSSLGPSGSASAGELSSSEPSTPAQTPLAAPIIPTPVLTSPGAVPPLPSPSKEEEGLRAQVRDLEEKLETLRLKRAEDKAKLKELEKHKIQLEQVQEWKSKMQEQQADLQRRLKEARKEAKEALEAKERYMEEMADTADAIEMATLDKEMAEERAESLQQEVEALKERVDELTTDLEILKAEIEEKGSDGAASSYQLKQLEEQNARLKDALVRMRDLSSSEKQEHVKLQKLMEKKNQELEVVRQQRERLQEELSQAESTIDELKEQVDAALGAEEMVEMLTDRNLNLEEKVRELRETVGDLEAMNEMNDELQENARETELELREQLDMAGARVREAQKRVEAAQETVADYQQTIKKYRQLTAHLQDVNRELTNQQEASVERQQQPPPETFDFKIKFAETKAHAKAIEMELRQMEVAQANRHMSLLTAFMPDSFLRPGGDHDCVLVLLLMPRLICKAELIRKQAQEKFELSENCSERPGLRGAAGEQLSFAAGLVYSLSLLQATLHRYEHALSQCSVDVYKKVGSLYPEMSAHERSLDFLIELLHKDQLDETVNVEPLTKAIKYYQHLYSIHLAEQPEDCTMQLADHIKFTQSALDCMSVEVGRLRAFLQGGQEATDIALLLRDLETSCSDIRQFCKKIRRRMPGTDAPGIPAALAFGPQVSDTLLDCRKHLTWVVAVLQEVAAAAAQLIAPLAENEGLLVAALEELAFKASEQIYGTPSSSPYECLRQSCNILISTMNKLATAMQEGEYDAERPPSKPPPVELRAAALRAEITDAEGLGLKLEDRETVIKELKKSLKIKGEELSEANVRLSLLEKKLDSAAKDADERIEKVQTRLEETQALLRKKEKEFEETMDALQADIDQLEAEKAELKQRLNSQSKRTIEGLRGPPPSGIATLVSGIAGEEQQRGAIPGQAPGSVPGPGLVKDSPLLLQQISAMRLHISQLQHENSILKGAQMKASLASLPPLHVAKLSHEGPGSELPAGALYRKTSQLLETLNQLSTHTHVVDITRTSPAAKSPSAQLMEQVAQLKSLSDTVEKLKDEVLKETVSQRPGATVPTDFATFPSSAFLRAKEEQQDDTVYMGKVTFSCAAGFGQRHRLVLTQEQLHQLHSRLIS

Consider “recombinant IC-2C fragment (residues 1-284) phosphorylated in vitro (phospho-ICs) (domain or fragment)”, for which the values for the overlay signal as percent of the endogenous IC band in test [1] and in test [2] were 96.2% and 55.4%, respectively. Further, in test [1], the percent increase in binding against dephospho-ICs amounted to 100%.

Turning to “recombinant IC-2C fragment spanning residues 1-284 (dephosphorylated ICs) (domain or fragment)”, the figures for the overlay signal as percent of the endogenous IC band in test [1] and in test [2] were 31.1% and 83%, respectively.

Consider “recombinant p150^Glued fragment spanning residues 1-811 (from UniProt P28023 1-811) (domain or fragment)”, for which the fold reduction in binding against the wild type in test [3] and in test [4] was 4 fold in each case.
